Results as given in patent US20100298213A1, “Pharmaceutically Active Insulin Receptor-Modulating Molecules” (Novo Nordisk A/S, priority 2004, published 2010).
Square brackets hold non-standard residues; d marks the D form. Ends that are not written are not given here. Dip = N[C@H](C(=O)O)C(c1ccccc1)c1ccccc1; Aib = CC(C)(N)C(=O)O

What was measured:
[1] = tested on: pepsin, elastase, chymotrypsin, trypsin, and carboxy-peptidase A; assay: Digestion with digestive enzymes (enzymatic stability); type: in vitro ADME
Text: A novel IRBP was derived from S597 by introducing the unusual amino acid residues aminoisobutyric acid and diphenylalanine into the Xaa7 position of the N-terminal Formula 6-like IRBAAS sequence of S597 (in place of Ala) and into the Xaa1 position of the C-terminal Formula 1 sequence (in place of Phe).

human IR (HIR) = human IR (HIR) (Homo sapiens, UniProt P06213); assay: Human IR affinity (Kd); type: binding; details: Kd value expressed relative to that of human insulin in the same assay
mouse adipocytes = assay: Glucose uptake in mouse adipocytes (FFC); type: cell-based; details: for EC50 (FFC) rel. to HI: EC50 value expressed relative to that of human insulin in the same assay; for EC50: concentration needed for half maximal uptake of glucose in mouse adipocytes
[2] = biological target: HIR +11 (human insulin receptor, B isoform) (Homo sapiens, UniProt P06213); assay: Binding of IM peptides to IR isoform HIR +11; details: +11 (B) isoform
Text: (§1) A number of IRBPs (S519; S557; S597; S636; S667; S733; S671; S660; S696; S574; S700; S626; and S726), some of which described in the prior patent documents, were applied to A and B isoforms (−11 and +11 isoforms) of the human, rat, and pig insulin receptors (HIR, RIR, and PIR) using standard methods.

[3] = biological target: RIR +11 (rat insulin receptor, B isoform) (Rattus norvegicus, UniProt P15127); assay: Binding of IM peptides to IR isoform RIR +11; details: +11 (B) isoform
Sequence of RIR +11 (rat insulin receptor, B isoform) (P15127 27-759 limits assumed): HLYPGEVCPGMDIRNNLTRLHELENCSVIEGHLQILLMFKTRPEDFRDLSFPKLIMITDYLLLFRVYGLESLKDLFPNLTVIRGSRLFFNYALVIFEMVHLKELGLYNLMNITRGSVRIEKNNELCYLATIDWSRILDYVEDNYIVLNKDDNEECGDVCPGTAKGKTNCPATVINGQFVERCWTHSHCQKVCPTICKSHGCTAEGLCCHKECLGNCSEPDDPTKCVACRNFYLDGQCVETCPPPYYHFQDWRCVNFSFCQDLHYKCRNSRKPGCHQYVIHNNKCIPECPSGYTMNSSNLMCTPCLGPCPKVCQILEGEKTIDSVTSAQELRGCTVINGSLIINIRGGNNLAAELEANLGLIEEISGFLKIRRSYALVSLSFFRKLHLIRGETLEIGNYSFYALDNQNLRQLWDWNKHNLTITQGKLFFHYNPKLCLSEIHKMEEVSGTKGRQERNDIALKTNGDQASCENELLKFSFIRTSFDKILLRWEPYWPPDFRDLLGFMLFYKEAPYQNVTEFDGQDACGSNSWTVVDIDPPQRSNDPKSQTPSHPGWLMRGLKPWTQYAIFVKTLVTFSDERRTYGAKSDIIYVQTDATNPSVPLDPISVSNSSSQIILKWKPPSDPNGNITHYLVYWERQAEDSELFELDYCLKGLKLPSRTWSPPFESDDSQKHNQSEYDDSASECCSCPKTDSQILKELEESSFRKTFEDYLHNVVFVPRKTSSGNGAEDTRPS
Sequence of RIR +11 (rat insulin receptor, B isoform) (P15127 764-1383 partner limits assumed): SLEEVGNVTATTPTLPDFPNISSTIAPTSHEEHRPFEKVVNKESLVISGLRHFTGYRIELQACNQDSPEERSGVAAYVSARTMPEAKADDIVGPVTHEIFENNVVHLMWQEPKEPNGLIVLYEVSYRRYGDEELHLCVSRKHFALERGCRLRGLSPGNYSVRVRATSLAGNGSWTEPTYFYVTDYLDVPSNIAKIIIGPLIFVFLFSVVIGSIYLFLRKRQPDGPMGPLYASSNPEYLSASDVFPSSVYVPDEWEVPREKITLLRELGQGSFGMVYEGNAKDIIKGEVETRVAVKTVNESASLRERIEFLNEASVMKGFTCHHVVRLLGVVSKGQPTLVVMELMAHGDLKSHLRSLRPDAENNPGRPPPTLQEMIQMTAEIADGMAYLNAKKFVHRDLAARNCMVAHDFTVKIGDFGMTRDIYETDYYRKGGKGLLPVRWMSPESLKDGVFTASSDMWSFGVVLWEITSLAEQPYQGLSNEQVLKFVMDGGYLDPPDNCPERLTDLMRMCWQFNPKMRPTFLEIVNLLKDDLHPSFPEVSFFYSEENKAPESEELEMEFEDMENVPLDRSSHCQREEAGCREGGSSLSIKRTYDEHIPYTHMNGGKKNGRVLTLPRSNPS
Text: as §1

[4] = tested on: PIR −11 (pig insulin receptor, A isoform); assay: Binding of IM peptides to IR isoform PIR −11; details: −11 (A) isoform
Text: as §1

[5] = biological target: RIR −11 (rat insulin receptor, A isoform) (Rattus norvegicus, UniProt P15127); assay: Binding of IM peptides to IR isoform RIR −11; details: −11 (A) isoform
Text: as §1

[6] = tested on: PIR +11 (pig insulin receptor, B isoform); assay: Binding of IM peptides to IR isoform PIR +11; details: +11 (B) isoform
Text: as §1

[7] = biological target: HIR −11 (human insulin receptor, A isoform) (Homo sapiens, UniProt P06213); assay: Binding of IM peptides to IR isoform HIR −11; details: −11 (A) isoform
Text: as §1

wistar rats = assay: Blood glucose after administration to wistar rats; type: in vivo, rat
Procedure: IRBP S667 was and human insulin were administered to wistar rats (S667 at 1.25 nmol/kg; 2.5 nmol/kg; and 5 nmol/kg; human insulin (HI) at 1.25 nmol/kg) using standard techniques, such as are described in the prior patent documents. Glucose measurements were taken 20 minutes prior to administration, at administration, and 20; 40; 60; 80; 120; and 180 minutes after administration. These measurements are compared in FIG. 3.

[8] = biological target: rat insulin receptor isoform with exon 11 (rat) (UniProt P15127); assay: receptor binding, standard methods (FIG. 2)
[9] = biological target: human insulin receptor isoform with exon 11 (human) (UniProt P06213); assay: receptor binding, standard methods (FIG. 2)
[10] = biological target: T1, pig insulin receptor isoform with exon 11 (pig, UniProt F1SCL0 28-758; F1SCL0 763-1382); assay: receptor binding, standard methods (FIG. 2)
T1 construct: also called PIR+11; PIR + 11
T1 sequence (alpha, as listed by the source limits assumed, stated change not applied, form in doubt, chain 1 of 2): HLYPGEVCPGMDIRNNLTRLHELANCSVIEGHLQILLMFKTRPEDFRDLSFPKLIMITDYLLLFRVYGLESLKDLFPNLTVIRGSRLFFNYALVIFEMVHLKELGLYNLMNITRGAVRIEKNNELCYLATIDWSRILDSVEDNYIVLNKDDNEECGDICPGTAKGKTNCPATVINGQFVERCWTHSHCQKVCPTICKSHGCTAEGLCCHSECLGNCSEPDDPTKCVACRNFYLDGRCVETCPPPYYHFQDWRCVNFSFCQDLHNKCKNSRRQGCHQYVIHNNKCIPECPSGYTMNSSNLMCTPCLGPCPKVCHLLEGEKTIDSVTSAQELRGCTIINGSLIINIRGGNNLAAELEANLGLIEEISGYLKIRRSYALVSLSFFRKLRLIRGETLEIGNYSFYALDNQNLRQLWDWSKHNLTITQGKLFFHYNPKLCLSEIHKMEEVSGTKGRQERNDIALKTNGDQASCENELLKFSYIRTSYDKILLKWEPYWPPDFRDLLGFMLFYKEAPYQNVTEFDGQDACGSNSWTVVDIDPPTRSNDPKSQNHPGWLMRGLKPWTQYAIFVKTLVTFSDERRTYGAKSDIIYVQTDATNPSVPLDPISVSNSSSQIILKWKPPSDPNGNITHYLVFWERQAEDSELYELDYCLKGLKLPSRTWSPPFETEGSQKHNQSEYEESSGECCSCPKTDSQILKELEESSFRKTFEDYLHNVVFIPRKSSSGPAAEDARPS
T1 sequence (beta, as listed by the source limits assumed, stated change not applied, form in doubt, chain 2 of 2): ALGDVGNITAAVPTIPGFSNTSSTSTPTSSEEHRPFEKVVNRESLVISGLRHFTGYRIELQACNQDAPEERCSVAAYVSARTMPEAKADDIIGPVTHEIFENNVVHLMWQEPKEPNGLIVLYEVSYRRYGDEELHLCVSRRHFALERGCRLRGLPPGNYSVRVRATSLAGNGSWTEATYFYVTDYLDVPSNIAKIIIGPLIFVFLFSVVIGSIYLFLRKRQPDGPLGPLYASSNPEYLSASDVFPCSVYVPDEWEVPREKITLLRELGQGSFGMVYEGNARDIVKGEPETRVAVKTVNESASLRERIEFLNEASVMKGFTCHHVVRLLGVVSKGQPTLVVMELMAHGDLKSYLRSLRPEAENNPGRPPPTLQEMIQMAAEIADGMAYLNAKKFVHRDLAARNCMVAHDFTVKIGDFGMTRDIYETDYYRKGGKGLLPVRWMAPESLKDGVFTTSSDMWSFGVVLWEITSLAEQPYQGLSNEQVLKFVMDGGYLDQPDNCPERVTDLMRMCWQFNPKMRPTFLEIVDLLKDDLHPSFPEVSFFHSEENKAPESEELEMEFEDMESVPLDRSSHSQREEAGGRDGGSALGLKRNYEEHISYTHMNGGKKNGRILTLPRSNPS
Text: as §1

[11] = biological target: T2, pig insulin receptor isoform without exon 11 (pig, UniProt F1SCK8 28-746; F1SCK8 751-1370); assay: receptor binding, standard methods (FIG. 2)
T2 construct: also called PIR-11; PIR - 11
Text: as §1

[12] = biological target: T3, human insulin receptor isoform without exon 11 (human, UniProt P06213-2 28-1370, limits assumed); assay: receptor binding, standard methods (FIG. 2)
T3 construct: also called HIR-11; HIR - 11
Text: as §1

[13] = biological target: T4, rat insulin receptor isoform without exon 11 (rat, UniProt P15127-2 27-1371, limits assumed); assay: receptor binding, standard methods (FIG. 2)
T4 construct: also called RIR-11; RIR - 11
T4 sequence (P15127 other isoform, or with tags, fused parts or gaps limits assumed): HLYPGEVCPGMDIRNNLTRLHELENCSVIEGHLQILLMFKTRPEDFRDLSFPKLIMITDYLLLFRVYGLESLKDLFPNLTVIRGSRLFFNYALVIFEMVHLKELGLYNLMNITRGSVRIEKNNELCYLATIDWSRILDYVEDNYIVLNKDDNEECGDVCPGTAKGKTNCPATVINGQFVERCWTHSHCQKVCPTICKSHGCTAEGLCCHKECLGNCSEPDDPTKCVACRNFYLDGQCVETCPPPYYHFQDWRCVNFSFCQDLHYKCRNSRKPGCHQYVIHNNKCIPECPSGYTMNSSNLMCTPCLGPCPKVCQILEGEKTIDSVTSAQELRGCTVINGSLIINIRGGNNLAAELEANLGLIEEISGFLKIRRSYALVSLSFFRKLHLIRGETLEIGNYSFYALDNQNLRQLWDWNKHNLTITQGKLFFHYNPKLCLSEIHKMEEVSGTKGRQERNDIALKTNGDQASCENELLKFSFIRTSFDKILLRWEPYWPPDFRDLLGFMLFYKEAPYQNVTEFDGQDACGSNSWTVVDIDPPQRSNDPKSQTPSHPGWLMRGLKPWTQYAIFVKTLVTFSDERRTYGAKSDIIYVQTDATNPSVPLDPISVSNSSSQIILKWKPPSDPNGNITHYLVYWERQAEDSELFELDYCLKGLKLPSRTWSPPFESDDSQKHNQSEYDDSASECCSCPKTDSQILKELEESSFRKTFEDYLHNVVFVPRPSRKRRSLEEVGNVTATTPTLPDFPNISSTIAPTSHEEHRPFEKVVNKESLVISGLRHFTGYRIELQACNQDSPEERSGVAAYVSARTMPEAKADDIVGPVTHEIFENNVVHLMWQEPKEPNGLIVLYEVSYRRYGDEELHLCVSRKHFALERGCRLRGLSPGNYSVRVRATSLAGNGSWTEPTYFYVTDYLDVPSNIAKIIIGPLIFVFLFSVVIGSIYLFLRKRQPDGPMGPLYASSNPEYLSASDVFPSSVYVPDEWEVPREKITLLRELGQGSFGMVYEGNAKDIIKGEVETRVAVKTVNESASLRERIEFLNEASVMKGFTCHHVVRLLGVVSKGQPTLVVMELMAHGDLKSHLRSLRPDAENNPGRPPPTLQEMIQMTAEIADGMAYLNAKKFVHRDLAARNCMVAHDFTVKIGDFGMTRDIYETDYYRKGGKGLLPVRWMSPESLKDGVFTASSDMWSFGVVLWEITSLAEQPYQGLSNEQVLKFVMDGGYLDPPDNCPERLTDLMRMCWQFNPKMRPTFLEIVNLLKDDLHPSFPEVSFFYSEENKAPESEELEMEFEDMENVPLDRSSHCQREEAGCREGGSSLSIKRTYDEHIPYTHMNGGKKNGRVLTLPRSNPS
Text: as §1

[14] = biological target: insulin receptor on mouse adipocytes (mouse, UniProt P15208 28-1372); assay: cell-based or functional assay

Row | Molecule | relative affinity HIR +11 [2] | relative affinity RIR +11 [3] | relative affinity [8] | relative affinity [9] | relative affinity [10] | relative affinity [11] | relative affinity [12] | relative affinity [13] | EC50 (FFC) [14] [nM] | EC50 (FFC) rel. to HI [14] [%] | also measured
1 | Ac-SLEEEW-Aib-QIQCEVWGRPCPSEP-Dip-YGWFHEQLGPP (Ac-SLEEEW[Aib]QIQCEVWGRPCPSEP[Dip]YGWFHEQLGPP; cysteine pairing not given here) [compound 873] | – | – | – | – | – | – | – | – | – | – | stabilization towards all of the relevant enzymes as compared to S597 [1]: greater than 100 fold; Kd (HIR) rel. to HI (human IR (HIR)): 20%
2 | GSLDESFYDWFERQLG-(pox)2-SLEEEWAQIQCEVWGRGCPSY [compound 675] | – | – | – | – | – | – | – | – | – | – | EC50 (FFC) rel. to HI (mouse adipocytes): 25%; EC50 (mouse adipocytes): 0.26 nM
3 | SLEEEWAQIEAEVWGRGAPSESFYDWFERQLG [S574] | 8.2 | 2 | – | – | – | – | – | – | – | – | –
4 | SLEEEWAQVECEVYERGCPSESFYDWFERQL [compound 696] | 3.1 | 0.2 | – | – | – | – | – | – | – | – | –
5 | SLEEEWAQIECEVYGRGCPSVRGFQGGTVWPGYEWLRNAAKK [compound 626] | 78 | 12 | – | – | – | – | – | – | – | – | –
6 | SLEEEWAQIQEEVWGRGEPSESFYDWFERQL [compound 700] | 53 | 13 | – | – | – | – | – | – | – | – | relative affinity PIR −11 [4]: 1.4; relative affinity RIR −11 [5]: 10; relative affinity PIR +11 [6]: 4.3; relative affinity HIR −11 [7]: 70
7 | SLEEEWAQIQCEVWGRGCPSESFYGWFERQL [compound 667] | 127 | 112 | – | – | – | – | – | – | – | – | dose dependence of glucose level modulation (wistar rats; 1.25, 2.5, 5 nmol/kg): dose-dependent IR-mediated glucose level modulation; blood glucose lowering compared with human insulin (wistar rats; S667 1.25, 2.5, 5 nmol/kg, HI 1.25 nmol/kg, up to 180 minutes): lower blood glucose to levels similar to human insulin at similar dosages
8 | Ac-SLE-Aib-EW-Aib-QIQCEVWGRGCPSESFYDWFERQL [compound 663] | – | – | – | – | – | – | – | – | – | – | EC50 (FFC) rel. to HI (mouse adipocytes): 15%; EC50 (mouse adipocytes): 0.43 nM
9 | MeO-PEG5000-SLEEEWAQIECEVYGRGCPSESFYDWFERQL ({MeO‑PEG5000}-SLEEEWAQIECEVYGRGCPSESFYDWFERQL; cysteine pairing not given here) [compound 660] | – | 9 | – | – | – | – | – | – | – | – | –
10 | SLEEEWAQIECEVWGRGCPSEGFYNAIELLS [compound 726] | 121 | 7.7 | – | – | – | – | – | – | – | – | –
11 | SLEEEWAQIQCEVWGRGCPSESFYGWFERQLG [compound 733] | 290 | 211 | – | – | – | – | – | – | – | – | –
12 | SLEEEWAQIQCEVWGRGCPSESFYDWFERQL [compound 636] | 117 | 79 | – | – | – | – | – | – | – | – | –
13 | SLEEEWAQIEAEVWGRGAPSESFYDWFERQLG [S574] | – | – | 2 | 8.2 | 0.4 | 0.2 | 8.3 | 0.9 | – | – | –
14 | Ac-SLEEEWAQIQCEVWGRGCPSESFYGWFERQLG (cysteine pairing not given here) [S733] | – | – | 211 | 290 | 228 | 111 | 281 | 179 | 0.12 | 61 | –
15 | SLEEEWAQIECEVYGRGCPSVRGFQGGTVWPGYEWLRNAAKK [S626] | – | – | 12 | 78 | 3 | 1 | 59 | 11 | 9.7 | 0.4 | –
16 | Ac-SLEEEWAQIECEVWGRGCPSEGFYNAIELLS (cysteine pairing not given here) [S726] | – | – | 7.7 | 121 | 5.9 | 1.3 | 83 | 13 | 19 | 0.3 | –
17 | Ac-SLEEEWAQIQCEVWGRGCPSESFYDWFERQL (cysteine pairing not given here) [S636] | – | – | 79 | 117 | 68 | 32 | 106 | 50 | 0.056 | 98 | –
18 | Ac-SLEEEWAQIQCEVWGRGCPSESFYGWFERQL (cysteine pairing not given here) [S667] | – | – | 112 | 127 | 84 | 47 | 111 | 44 | 0.21 | 31 | –
19 | SLEEEWAQVECEVYERGCPSESFYDWFERQL [S696] | – | – | 0.2 | 3.1 | 0.8 | 0.3 | 3.3 | 0.3 | 870 | – | –
20 | {MeO‑PEG5000}-SLEEEWAQIECEVYGRGCPSESFYDWFERQL (cysteine pairing not given here) [S660] | – | – | 9 | 58 | 12 | 5.5 | 52 | 6.5 | 2 | 3.3 | –
